Reference: article PMC3217859, “Protein phosphatase 2a (PP2A) binds within the oligomerization domain of striatin and regulates the phosphorylation and activation of the mammalian Ste20-Like kinase Mst3” (BMC Biochemistry, 2011)

Assays:
Assay in all cases: co-IP; anti-HA immunoprecipitates (12CA5 with protein A-Sepharose, or F7 anti-HA-agarose when probing for Mst3 or Mst4; 1.5 h, 4°C) of lysates (1% Nonidet P-40, 0.135 M NaCl, 10% glycerol, 20 mM Tris pH 8.0) of HEK293 cells transfected with HA-striatins; endogenous partners by immunoblot, partner/HA-striatin ratio by chemilumimager against wild type; 50 mM NaF and 100 nM okadaic acid in the lysis buffer in the …
Conditions in all cases: partners not purified
[1] = molecular target: T1, HA-tagged striatin with deletion of residues 191-269 (human, UniProt O43815 1-780, deletion of residues 191-269)
T1 construct: source: HEK293 or HEK293 stably expressing FLAG-CCM3, transfected, in lysate; not shown: HA, N-terminal, kept
T1 sequence (looked up): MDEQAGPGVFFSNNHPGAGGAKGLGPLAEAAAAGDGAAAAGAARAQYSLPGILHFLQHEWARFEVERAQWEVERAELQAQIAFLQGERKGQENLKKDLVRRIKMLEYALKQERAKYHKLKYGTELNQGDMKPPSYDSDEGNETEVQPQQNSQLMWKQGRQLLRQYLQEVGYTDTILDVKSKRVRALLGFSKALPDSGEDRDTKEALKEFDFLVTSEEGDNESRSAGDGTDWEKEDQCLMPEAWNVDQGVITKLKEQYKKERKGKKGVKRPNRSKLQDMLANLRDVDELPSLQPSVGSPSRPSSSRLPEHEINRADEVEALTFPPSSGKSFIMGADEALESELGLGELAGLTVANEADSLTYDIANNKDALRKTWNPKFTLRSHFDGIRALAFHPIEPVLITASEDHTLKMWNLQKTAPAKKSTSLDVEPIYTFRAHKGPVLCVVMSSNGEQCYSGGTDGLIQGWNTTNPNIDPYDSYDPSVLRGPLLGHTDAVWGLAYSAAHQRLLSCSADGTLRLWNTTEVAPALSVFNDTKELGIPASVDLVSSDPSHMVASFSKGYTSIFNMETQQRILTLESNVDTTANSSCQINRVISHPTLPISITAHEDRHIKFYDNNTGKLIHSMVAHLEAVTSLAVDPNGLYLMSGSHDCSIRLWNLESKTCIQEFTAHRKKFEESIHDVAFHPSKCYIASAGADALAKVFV

[2] = molecular target: T2, HA-tagged Δ(148-166) striatin (human, UniProt O43815 1-780, Δ(148-166))
T2 construct: source: HEK293, transfected, in lysate; not shown: HA, N-terminal, kept
T2 sequence (looked up): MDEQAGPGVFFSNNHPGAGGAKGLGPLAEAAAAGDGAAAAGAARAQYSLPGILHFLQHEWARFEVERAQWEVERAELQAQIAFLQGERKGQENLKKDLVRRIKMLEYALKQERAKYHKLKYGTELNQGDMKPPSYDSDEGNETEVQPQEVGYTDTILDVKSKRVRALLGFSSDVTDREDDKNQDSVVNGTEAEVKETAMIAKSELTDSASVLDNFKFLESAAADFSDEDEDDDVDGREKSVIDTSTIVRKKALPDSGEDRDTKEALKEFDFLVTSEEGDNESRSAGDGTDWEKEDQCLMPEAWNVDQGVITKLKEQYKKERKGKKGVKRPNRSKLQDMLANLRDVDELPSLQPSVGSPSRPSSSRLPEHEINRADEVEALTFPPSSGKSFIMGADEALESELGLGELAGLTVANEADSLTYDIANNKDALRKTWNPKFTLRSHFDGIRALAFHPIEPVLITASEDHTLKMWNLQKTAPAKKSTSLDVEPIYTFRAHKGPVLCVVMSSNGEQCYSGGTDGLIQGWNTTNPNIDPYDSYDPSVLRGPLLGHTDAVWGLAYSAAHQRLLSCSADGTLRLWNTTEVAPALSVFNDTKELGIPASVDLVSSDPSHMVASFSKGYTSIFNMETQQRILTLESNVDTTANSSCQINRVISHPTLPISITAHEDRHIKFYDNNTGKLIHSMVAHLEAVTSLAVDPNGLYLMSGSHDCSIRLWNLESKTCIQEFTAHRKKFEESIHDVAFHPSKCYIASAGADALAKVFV

[3] = molecular target: T3, HA-tagged R100S/R101E striatin (human, UniProt O43815 1-780, R100S | R101E)
T3 construct: striatin, human, double point mutant in the coiled-coil domain; source: HEK293, transfected, in lysate; not shown: HA, N-terminal, kept
T3 sequence (looked up): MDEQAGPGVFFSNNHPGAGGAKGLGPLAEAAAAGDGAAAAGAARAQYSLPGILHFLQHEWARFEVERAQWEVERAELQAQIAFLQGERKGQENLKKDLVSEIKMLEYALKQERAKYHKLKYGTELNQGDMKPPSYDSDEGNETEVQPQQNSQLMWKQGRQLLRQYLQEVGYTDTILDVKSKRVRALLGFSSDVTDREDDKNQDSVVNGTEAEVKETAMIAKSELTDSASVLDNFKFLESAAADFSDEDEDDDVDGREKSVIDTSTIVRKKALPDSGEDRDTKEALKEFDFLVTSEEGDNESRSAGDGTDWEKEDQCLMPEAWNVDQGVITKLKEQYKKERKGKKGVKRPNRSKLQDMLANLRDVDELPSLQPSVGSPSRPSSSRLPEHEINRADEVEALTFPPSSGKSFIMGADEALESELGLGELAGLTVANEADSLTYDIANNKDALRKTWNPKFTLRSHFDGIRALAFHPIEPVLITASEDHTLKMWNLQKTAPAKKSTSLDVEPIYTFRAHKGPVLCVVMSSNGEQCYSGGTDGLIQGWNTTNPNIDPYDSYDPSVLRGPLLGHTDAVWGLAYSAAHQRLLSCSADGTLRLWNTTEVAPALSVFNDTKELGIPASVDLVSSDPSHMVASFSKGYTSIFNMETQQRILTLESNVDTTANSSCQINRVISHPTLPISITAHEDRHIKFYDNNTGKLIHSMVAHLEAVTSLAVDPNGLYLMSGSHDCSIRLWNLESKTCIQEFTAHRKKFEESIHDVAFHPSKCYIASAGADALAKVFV

[4] = molecular target: T4, HA-tagged Δ(227-309) striatin (human, UniProt O43815 1-780, Δ(227-309))
T4 construct: source: HEK293, transfected, in lysate; not shown: HA, N-terminal, kept
T4 sequence (looked up): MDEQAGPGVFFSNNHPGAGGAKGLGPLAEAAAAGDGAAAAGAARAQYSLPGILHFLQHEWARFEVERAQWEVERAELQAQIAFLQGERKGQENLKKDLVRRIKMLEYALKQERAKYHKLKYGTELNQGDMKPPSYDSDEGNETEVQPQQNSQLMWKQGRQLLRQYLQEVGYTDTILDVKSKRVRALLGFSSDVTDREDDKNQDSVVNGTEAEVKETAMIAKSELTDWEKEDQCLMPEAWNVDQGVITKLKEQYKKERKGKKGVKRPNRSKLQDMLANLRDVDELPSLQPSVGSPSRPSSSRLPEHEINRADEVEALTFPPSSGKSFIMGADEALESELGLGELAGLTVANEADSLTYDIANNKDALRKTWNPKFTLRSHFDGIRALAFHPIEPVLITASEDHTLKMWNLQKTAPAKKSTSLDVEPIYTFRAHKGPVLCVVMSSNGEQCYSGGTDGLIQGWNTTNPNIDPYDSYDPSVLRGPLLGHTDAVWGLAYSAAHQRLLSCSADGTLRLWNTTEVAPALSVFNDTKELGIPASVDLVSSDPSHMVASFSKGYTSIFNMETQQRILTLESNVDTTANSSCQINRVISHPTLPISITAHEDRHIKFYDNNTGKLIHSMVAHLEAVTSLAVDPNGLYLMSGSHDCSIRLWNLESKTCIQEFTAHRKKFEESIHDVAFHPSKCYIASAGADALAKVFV

[5] = molecular target: T5, HA-tagged Δ(270-344) striatin (human, UniProt O43815 1-780, Δ(270-344))
T5 construct: source: HEK293 or HEK293 stably expressing FLAG-CCM3, transfected, in lysate; not shown: HA, N-terminal, kept
T5 sequence (looked up): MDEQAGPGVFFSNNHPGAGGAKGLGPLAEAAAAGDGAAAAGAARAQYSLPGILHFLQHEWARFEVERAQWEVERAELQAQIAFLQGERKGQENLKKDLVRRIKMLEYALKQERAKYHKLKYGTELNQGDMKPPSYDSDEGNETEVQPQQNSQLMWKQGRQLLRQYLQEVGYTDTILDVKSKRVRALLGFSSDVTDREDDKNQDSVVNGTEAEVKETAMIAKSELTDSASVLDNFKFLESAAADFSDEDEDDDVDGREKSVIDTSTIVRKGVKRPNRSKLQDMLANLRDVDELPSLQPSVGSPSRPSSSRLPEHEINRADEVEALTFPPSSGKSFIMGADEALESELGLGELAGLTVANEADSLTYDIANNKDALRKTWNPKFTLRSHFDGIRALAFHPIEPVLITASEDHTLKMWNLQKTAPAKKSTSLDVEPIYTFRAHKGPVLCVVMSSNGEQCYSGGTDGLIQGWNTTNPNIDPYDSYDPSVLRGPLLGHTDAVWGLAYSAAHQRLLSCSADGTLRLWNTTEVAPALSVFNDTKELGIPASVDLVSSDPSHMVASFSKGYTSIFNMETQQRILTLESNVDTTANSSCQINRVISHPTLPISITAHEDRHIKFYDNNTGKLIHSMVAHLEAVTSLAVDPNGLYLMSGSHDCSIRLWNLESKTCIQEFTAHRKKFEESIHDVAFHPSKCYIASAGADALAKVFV

B1: mammalian Ste20-like kinase Mst3 (enzyme)
chain: not shown
notes: Mst3 kinase, endogenous in HEK293 cells; Runs as a lower and an upper (hyperphosphorylated) band; both are found with striatin; source: endogenous, HEK293 lysate
[1]
  percent reduction in binding against wild-type striatin: ~33%
[2]
  fold binding against wild-type striatin: ~3.5 fold

B2: S/G2 nuclear autoantigen (SG2NA) (natural protein, human (endogenous in HEK293), UniProt Q13033 1-797, looked up)
chain: MDELAGGGGGGPGMAAPPRQQQGPGGNLGLSPGGNGAAGGGGPPASEGAGPAAGPELSRPQQYTIPGILHYIQHEWARFEMERAHWEVERAELQARIAFLQGERKGQENLKKDLVRRIKMLEYALKQERAKYHKLKYGTELNQGDLKMPTFESEETKDTEAPTAPQNSQLTWKQGRQLLRQYLQEVGYTDTILDVRSQRVRSLLGLSNSEPNGSVETKNLEQILNGGESPKQKGQEIKRSSGDVLETFNFLENADDSDEDEENDMIEGIPEGKDKHRMNKHKIGNEGLAADLTDDPDTEEALKEFDFLVTAEDGEGAGEARSSGDGTEWDKDDLSPTAEVWDVDQGLISKLKEQYKKERKGKKGVKRANRTKLYDMIADLGDDELPHIPSGIINQSRSASTRMTDHEGARAEEAEPITFPSGGGKSFIMGSDDVLLSVLGLGDLADLTVTNDADYSYDLPANKDAFRKTWNPKYTLRSHFDGVRALAFHPVEPVLVTASEDHTLKLWNLQKTVPAKKSASLDVEPIYTFRAHIGPVLSLAISSNGEQCFSGGIDATIQWWNMPSPSVDPYDTYEPNVLAGTLVGHTDAVWGLAYSGIKNQLLSCSADGTVRLWNPQEKLPCICTYNGDKKHGIPTSVDFIGCDPAHMVTSFNTGSAVIYDLETSQSLVILSSQVDSGLQSNNHINRVVSHPTLPVTITAHEDRHIKFFDNKTGKMIHSMVAHLDAVTSLAVDPNGIYLMSGSHDCSIRLWNLDSKTCVQEITAHRKKLDESIYDVAFHSSKAYIASAGADALAKVFV
notes: SG2NA, striatin family member, endogenous in HEK293 cells; source: endogenous, HEK293 lysate
[3]
  percent of the wild-type level bound: 81 % of wild-type level

B3: Mst4 kinase (enzyme)
chain: not shown
notes: Mst4 kinase, endogenous in HEK293 cells; source: endogenous, HEK293 lysate
[1]
  percent reduction in binding against wild-type striatin: 33%
[4]
  percent reduction in binding against wild-type striatin: 38%
[2]
  fold binding against wild-type striatin: ~4 fold
[5]
  percent reduction in binding against wild-type striatin: 75%
